Where a chain is given by its changes, count along the chain named.
T1: FLAG-tagged recombinant human APRIL (human, UniProt O75888 105-250)
T1 construct: KINEXA ligand; also called huAPRIL
T1 sequence: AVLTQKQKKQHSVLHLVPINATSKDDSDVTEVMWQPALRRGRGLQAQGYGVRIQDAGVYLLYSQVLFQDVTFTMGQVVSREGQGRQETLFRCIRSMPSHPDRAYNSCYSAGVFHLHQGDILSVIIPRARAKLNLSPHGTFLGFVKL

T2: FLAG-tagged cynomolgous APRIL (cynomolgus monkey, UniProt A0ACM8R0G4 110-250 (rhesus entry))
T2 construct: FLAG-tagged, expressed with TPA signal peptide; also called cyAPRIL
T2 sequence: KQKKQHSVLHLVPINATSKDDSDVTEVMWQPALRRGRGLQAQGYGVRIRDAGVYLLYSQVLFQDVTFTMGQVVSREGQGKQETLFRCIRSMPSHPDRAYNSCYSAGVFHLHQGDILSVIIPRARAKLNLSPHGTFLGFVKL

B1: Variant 9-3-Ig (Fc fusion, human)
chain: AGQCSQNEYFDHLVRACIPCQVRCSSNTPPLTCQRYCNAGVTNSVKGTNAERKSSVECPPSPAPPVAGPSVFLFPPKPKDTLMISRTPEVTCVVVDVSHEDPEVQFNWYVDGVEVHNAKTKPREEQFNSTFRVVSVLTVVHQDWLNGKEYKCKVSNKGLPAPIEKTISKTKGQPREPQVYTLPPSREEMTKNQVSLTCLVKGFYPSDISVEWESNGQPENNYKTTPPMLDSDGSFFLYSKLTVDKSRWQQGNVFSCSVMHEALHNHYTQKSLSLSPGK
notes: domain: Fc; also called BAv9-3
B2: BAv51-Ig (Fc fusion)
chain: AGQCSQNEYFDHLIRACIPCQARCSSNTPPLTCQRYCNAGVTNSVKGTNA
notes: also called BAv51 (2)-Ig; not shown: PIg18: human IgG2 Fc, Ser at Fc positions 4, 5, 11 (native Cys)
B3: BAv53-Ig (Fc fusion)
chain: B2 chain with H12S, A16H, A22V
notes: not shown: PIg18: human IgG2 Fc, Ser at Fc positions 4, 5, 11 (native Cys)
B4: BAv58-Ig (Fc fusion)
chain: B2 chain with H12S, I14V, A16H, A22I
notes: as for B3
B5: BAv60-Ig (Fc fusion)
chain: B2 chain with H12S, I14V, A16H, A22V
notes: also called BAv60 (2)-Ig; not shown: PIg18: human IgG2 Fc, Ser at Fc positions 4, 5, 11 (native Cys)
B6: BAv74-Ig (Fc fusion)
chain: B2 chain with I18T, A22V
notes: as for B3
B7: BAv45-Ig (Fc fusion)
chain: B2 chain with I14L, A22V, R23N
notes: as for B3
B8: BAv55-Ig (Fc fusion)
chain: B2 chain with I14G, A22V
notes: as for B3
B9: BAv63-Ig (Fc fusion)
chain: B2 chain with I14A, A22V
notes: as for B3
B10: BAv64-Ig (Fc fusion)
chain: B2 chain with I14Y, A22V
notes: as for B3
B11: BAv78-Ig (Fc fusion)
chain: B2 chain with I14L, A22Y, R23T
notes: as for B3
B12: BAv79-Ig (Fc fusion)
chain: B2 chain with H12P
notes: as for B3
B13: BAv82-Ig (Fc fusion)
chain: B2 chain with H12P, I14V
notes: as for B3

Target: T1, FLAG-tagged recombinant human APRIL
Assay: KinExA
Description: (§1) Equilibrium measurements were performed using FLAG-tagged, recombinant huBAFF and huAPRIL ligands. Fixed ligand concentrations of human BAFF or human APRIL were incubated with serial dilutions of the variant BCMA ECD-Ig fusion polypeptides, and free ligand was detected in a KINEXA 3200 Instrument. variant BCMA ECD-Ig fusion polypeptides were first diluted in equilibration buffer (1×PBS, pH 7.4, 1 mg/ml BSA) to a range of concentrations from 10 nM to 100 fM. The linear portion of the dilution series was typically 2-fold. Ligands were diluted in equilibration buffer to fixed concentrations ranging from 5 to 20 pM and then incubated with the variant BCMA-Ig dilutions in total reaction volumes ranging from 4.5 to 15 ml. Samples were incubated at room temperature for 48-72 hours to reach equilibrium. For each data point, a fresh column of 850 μl of bead slurry coated with Variant BAv-238475-Ig was introduced into the KINEXA flow cell. Equilibrated samples ranging from 1 to 5 ml reaction volume were injected at a flow rate of 0.25 ml/min. […] The DyLight 649 fluorescent signal was detected using the red filter set (620/30 nanometer excitation filter, 670/40 nanometer emission filter, 645 nanometer dichroic filter) on the KinExA instrument and converted to a voltage signal that was directly proportional to the concentration of free ligand in the equilibrated sample.
(§2) The standard kinetic exclusion assays and data analyses described above were performed on protein preparations of various variant BCMA ECD-Ig fusion polypeptides, as well as Z-TACI-Ig and [S40G]huBCMA ECD-Ig fusion polypeptides. FIG. 8A, FIG. 8B, and Table 4 summarize the binding data for representative variant BCMA ECD-Ig polypeptides and controls in molar concentrations of huBAFF or huAPRIL determined by KINEXA binding assays.

Binder | fold improvement over control | Kd
B1 | 0.008 fold | 
B2 | 0.00225 fold | 70.8 pM
B3 | 0.00469 fold | 34 pM
B4 | 0.00514 fold | 31 pM
B5 | 0.0031 fold | 51.4 pM
B6 | 0.00871 fold | 18.3 pM

Target: T3, FLAG-tagged human BAFF (human, UniProt Q9Y275 134-285, limits assumed)
T3 construct: used in BIACORE (Ex. 9) and KINEXA (Ex. 11); also called huBAFF
Assay: KinExA
Description: as §1, §2

Binder | fold improvement over control | Kd
B1 | 2660 fold | 
B2 | 1180 fold | 0.192 pM
B3 | 488 fold | 0.462 pM
B4 | 940 fold | 0.24 pM
B5 | 4200 fold | 0.0537 pM
B6 | 10.4 fold | 21.8 pM

Target: T2, FLAG-tagged cynomolgous APRIL
Assay: BIACORE SPR; NB = No binding
Description: For human BAFF, cynomolgus monkey APRIL, and mouse APRIL measurements, mouse monoclonal antibody (IgG1) anti-FLAG M2 (Sigma Aldrich, Cat. No. F1804) was immobilized on CM3 sensor chips (GE Healthcare, Cat. No. BR-1005-41) according to the manufacturer's protocol. Antibody was diluted to 30 μg/ml in immobilization buffer (10 mM pH 5±0.20; GE Healthcare; GE Healthcare, Catalog No. BR-1003-51). […] Unreacted sites were quenched with 35 μl of 1M ethanolamine-HCl, pH 8.5 (GE Healthcare, GE Healthcare, Cat. No. BR-1000-50). This procedure typically yielded 3,000-4,000 response units (RU) of coupled antibody.
The fusion polypeptides were diluted in HBS-EP buffer and flowed over ligand-coated sensor chips. The variant BCMA-Ig and surrogate control fusion proteins were injected at three concentrations (1.5 nM, 15 nM, and 150 nM at 30 μl/min for 2 minutes per association phase) in a single binding cycle, followed by a 20 minute incubation with HBS-EP buffer containing no protein at the same flow rate. A similar protocol was followed for Z-TACI-Ig, except that the injections were at 4.5 nM, 45 nM, and 450 nM.
Using available information from the structures and published literature, several residues in BAv8-10 were targeted for substitution with conserved as well as non-conserved residues and their effect on BAFF and APRIL binding was assessed by BIACORE.

Binder | binding result
B7 | no binding (tested: 150 nM)
B8 | no binding (tested: 150 nM)
B9 | no binding (tested: 150 nM)
B10 | no binding (tested: 150 nM)
B11 | no binding (tested: 150 nM)
B12 | no binding (tested: 150 nM)
B13 | no binding (tested: 150 nM)

Target: T1, FLAG-tagged recombinant human APRIL
Assay: KinExA
Remark: another data set of the same source
Description: as §1
(§3) Table 5 provides the selectivities of exemplary variant BCMA polypeptides with respect to BAFF and APRIL.

Binder | Selectivity for huAPRIL (KD BAFF/KD APRIL)
B1 | 0.005 ratio
B2 | 0.003 ratio
B3 | 0.014 ratio
B4 | 0.008 ratio
B5 | 0.001 ratio
B6 | 1.19 ratio

Target: T3, FLAG-tagged human BAFF
Assay: KinExA
Remark: another data set of the same source
Description: as §1, §3

Binder | Selectivity for huBAFF (KD APRIL/KD BAFF)
B1 | 221 ratio
B2 | 369 ratio
B3 | 73.6 ratio
B4 | 129 ratio
B5 | 957 ratio
B6 | 0.84 ratio
